The target of data set [1] is T1, SUVR5 zinc finger domain (aa 720-866) (Arabidopsis thaliana, UniProt O64827 SEQ:1-147).
T1 sequence: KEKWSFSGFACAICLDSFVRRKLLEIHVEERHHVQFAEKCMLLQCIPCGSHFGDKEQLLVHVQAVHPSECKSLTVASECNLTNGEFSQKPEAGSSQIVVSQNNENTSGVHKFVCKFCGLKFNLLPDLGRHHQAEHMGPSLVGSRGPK
Briefly: EMSA; 100, 250, 500 ng protein; 12% glycerol, 20 mM Tris-HCl pH 7.5, 50 mM KCl, 1 mM MgCl2, 1 mM DTT. The settings on record: tags: GST fusion (pDEST15). A general note: A gel shift assay detects complexes by their altered migration in electrophoresis.

In data set [2] the target is T1, SUVR5 zinc finger domain (aa 720-866). Briefly: EMSA; specificity control; specificity stated as confirmed by EMSA, gel only in figure. Conditions: tags: GST fusion (pDEST15).

B1: specific probe (dsDNA)
DNA 1: GTAGAATACTAGTTGATAAC
DNA 2: GTTATCAACTAGTATTCTAC
Take B1: the binding result in data set [1] is “binds”.

B2: unspecific probe (dsDNA)
DNA 1: ACCAAGCAACACACCCCGT
DNA 2: ACGGGGTGTGTTGCTTGGT
Turning to B2, in data set [2], the binding result was “no binding”.

Source of the values: patent US20150150156, “METHODS AND COMPOSITIONS FOR REDUCING GENE EXPRESSION IN PLANTS” (The Regents of the University of California, published 2015).
